Reference: the RNAGym collection of RNA variant scans (doi:10.1073/pnas.2313332121)
Fewer inactive variants are shown than the library holds.

B1: TPR 5TU (parent)
chain: GGAUCUUCUCGAUCUAACAAAAAAGACAAAUCUGCCACAAAGCUUGAGAGCAUCUUCGGAUGCAGAGGCGGCAGCCUUCGGUGGCGCGAUAGCGCCAACGUUCUCAACUAUGACACGCAAAACGCGUGCUCCGUUGAAUGGAGUUUAUCAUG

Variants of: B1
Experiment: polymerase ribozyme fitness, log enrichment relative to wild type (log ratio); higher = more active; in vitro selection for triplet polymerase activity
In short: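 For each subunit of a heterodimeric triplet polymerase ribozyme, a mutant library was built by PCR and transcribed, then taken through a single in vitro selection round in triplicate. Selection involved annealing to a biotinylated primer, the partner subunit and triplets, incubation frozen at −7 °C, gel excision of extended constructs, capture on streptavidin beads and RT-PCR. Genotypes were retained after Illumina sequencing of inputs and outputs only with ≥10 input reads and ≥1 read in each output. Fitness is defined as the logarithm of a genotype's enrichment relative to wild-type enrichment, using inverse-variance-weighted averages across replicates, with the logarithm taken to base 2.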

Variant | polymerase ribozyme fitness (log ratio)
C18G A23C G34A A66U G84U U135A | ≤ -4.2
A19U G50A | -1.63
A19U G50U | -0.0269
A19U A73U | -0.608
C18U C87U C99U A119G C125G U135G | ≤ -4.2
A17G U109G G140U | -3.77
A19G A28G C38U A49C G58A G65A C76A C93G | ≤ -4.2
A17U C93U C114A C116G | ≤ -4.2
A17G G50U C95U G124C G141A | -0.476
C18U C76A U127G A137C | ≤ -4.2
A19C A47C C54A U56A C87A G100C G136A | ≤ -4.2
A19G C27U | -1.17
A19U G25U A49C U55G U56G C85U A98G A106G C118U G133A U145G | ≤ -4.2
A17U A22U U44A G83C C131U | ≤ -4.2
A17U A113U | -1.99
A17G C129G | -3.57
A19C G88A C95A C99U | ≤ -4.2
A17U A40U C123U | -0.36
A19G U55A C87A A106G G124C G136C C149A A150C | ≤ -4.2
A19G A52U U53A U82C C87G | ≤ -4.2
A19U A30C G42A C43G C54G G70U U77C C96G A107G | ≤ -4.2
C18U A23U A26U A30U C87U C96G C108U G136A | ≤ -4.2
A17U C116U | -0.46
A19U A60U C93U C114U | -4.17

Variant | polymerase ribozyme fitness (log ratio)
C18G A52U U82A | -3.02
C18U A21C G42C C93U | ≤ -4.2
C18G A21U A29C A37U C57U C95U U127G U148G | -3.75
A19G U78G C87G A98U U101G G126A | ≤ -4.2
C18U A19U A24G G74U C79U | ≤ -4.2
A19U C57A A60C C93A | ≤ -4.2
C18A A21C A37C G81A C87G | ≤ -4.2
A17G U61A G71A G143A | ≤ -4.2
A17U A19U A37U U53A G58A C95A A121G A122C | -3.75
C18G G50A C96G A121C | -2.18
C18G C36A C95A C96A | ≤ -4.2
C18G A19U G62C C85U C116A | -1.81
C18U G86U | -2.18
C18G A52C C69G C75G G94A C95U A113U | ≤ -4.2
C18U G65U A73G C85U G141C | ≤ -4.2
C18U A121U | -1.1
A19U C54A G70A U82A U134G U139A | ≤ -4.2
A17U A19U C63U G68C C95U C96A G140A | ≤ -4.2
C18U C35U G58U G80C C85U | ≤ -4.2
A19U C36U G86C C93U G100A G126C | ≤ -4.2
A19C U55G C96A C108G C116G A119C | ≤ -4.2
A17U C87G | -3.75
A19C A21C A26C U44A C57A U61A G68A G86A C118U | ≤ -4.2
A17U C96G A142U U146A | -2.11

Variant | polymerase ribozyme fitness (log ratio)
C18U G25C C43G C99A | ≤ -4.2
A19C A21U U101A | 0.427
C18A G58A G86U A119U | -2.06
A17G G84A A147C | -0.273
C18A U55G C85A C118U | -2.09
C18G C57G G80U C87A U127C G128C | ≤ -4.2
A19G U31G U44A G80A C123G G141C | ≤ -4.2
A19U G86U | -1.75
C18G A19G A20U C57U G68C G141A | ≤ -4.2
C18A C69G C96U C103A | -2.88
A19C G59A U144C | 1.14
A19C U53A | -1.57
C18U G50U C96G U146C | -0.747
C18U A20G C76A U77A G92U U101A U134G | ≤ -4.2
C18A C85A G112C C116U | ≤ -4.2
C18U G25U G42C A73U G83U C93U A106G A121C U144A | ≤ -4.2
A19C A28U C75A C85U G92U | ≤ -4.2
A19C A41G G59U A91C A107G A120U | ≤ -4.2
A19C C51A G86C | -3.75
C18U A28C C87G G124U U139G U146G | ≤ -4.2
A19U C43U A73U C79U A106U A107C | ≤ -4.2
C18G U31G A52G G80C U101C U127G | ≤ -4.2
A19G A23U A30C G48U U56C A60U C87U | ≤ -4.2
A17U A29U G74C G124U | ≤ -4.2

Variant | polymerase ribozyme fitness (log ratio)
A17U G80C C93A U101G | ≤ -4.2
A19U A39G G74U C85G G128C C129U | ≤ -4.2
C18G G50U G88A | -4.08
A17G G84A | -0.469
A17U C38A U44A G70C U82C C95U | ≤ -4.2
A19G G59U C85U C95A | -1.78
C18U A47C C79G G88A A91C A121U U148G | ≤ -4.2
A19G G58C G59C | 0.18
A17U C87U U90C C99G | -3.69
A19C C125U | 0.16
C18U G62A G67A U77G C87A U101C C123U G136A | ≤ -4.2
A19C A91U C95A | ≤ -4.2
A19C G65A G83C | -1.84
C18G A28U A29U A66G G67C C96U A106C | ≤ -4.2
A19G G48C G86A C103U C108G | ≤ -4.2
A19U A26C C38U A89G A98U A107C | ≤ -4.2
A19G G50U U55A C96U U145G | -2.18
A19U A41C A73U A91C C93U C129G G140U C149U | ≤ -4.2
C18G A137G U145G | -2.16
A19U C38U G50A C79A | ≤ -4.2
A19U A23U U90G C105A | ≤ -4.2
A17G U45G G80U | ≤ -4.2
A17U G94C C95U C105U | -0.248
A19U C99U G133C U144G | -2.25

Variant | polymerase ribozyme fitness (log ratio)
A19C G126U U145A | -0.56
A19G A29G G92A C116G | -3.8
C18A A19C A40C C85U | 0.244
A17U C85U U104G | -1.01
A19G G48A C75G C93A | ≤ -4.2
C18U A19G G94A | -2.01
A19U G68C C93G C131G | ≤ -4.2
A19C U61C G141C U144C C149A | ≤ -4.2
A19U G80A | -0.164
A17U C69U G84C A97G | ≤ -4.2
C18G C51U C87G C99A U101C C118U G136A | ≤ -4.2
A19U G46A C51U A91G G124U U139A | ≤ -4.2
C18U U44A G46U A64G U77A A110C G140C U148A | ≤ -4.2
A19C A21C C76U C87A A110G A120G | ≤ -4.2
A17G G67C G86A | ≤ -4.2
C18G G50A C76U A115G A119G | -3.18
A17U C105A | -1.28
A19G G86A | -1.36
A17U C96A | -0.735
C18G A26U C35U U78A C99G U135C A147C | ≤ -4.2
C18U G84A A113G C114U | -2.6
C18A A20G G46C U56C G94C C105G A122U | -0.89
C18G G86A C87A A91C A120C | ≤ -4.2
C18U C32U A37C C54A C69A G70U A97U A138C C149A | ≤ -4.2

Variant | polymerase ribozyme fitness (log ratio)
A17U A30U U55C C116U | -4.01
C18G A28U A66U G94U C95A | ≤ -4.2
A19U A26C G46U C93A C95G C108A U151G | ≤ -4.2
C18G C35A G46C G58C C95G A113U | ≤ -4.2
A19U A39G C85U U134G | ≤ -4.2
A19U A22U A47C G80A G86A C87A C95U U104G A120U | ≤ -4.2
C18G C36A C96U A138U | -4.03
A19U C35G C57U U90C C96A C132U | ≤ -4.2
C18U G84A | -0.579
A19C A41G C131A A138U | ≤ -4.2
A17U A24U G83C | 0.0208
C18U A40G C57G C95U | -3.91
A17U G46U G84A C105U | -0.266
A17G U53A C99G U130C | ≤ -4.2
A19U G46A G58C A97U U134A | ≤ -4.2
A17U C35U A97U G141A | -1.34
A19U A22C C93U U145A | -1.22
A17U A23U C36G C57A G70U U78C C85U C103G A147C C149U | ≤ -4.2
A19C C36U G70A G80U C105U G152U | -3.99
C18U G86A G140A | ≤ -4.2
A19G A91C C116A G141A U145G | ≤ -4.2
A19G C54G G70A A73G G92A A106G C116G A137G | ≤ -4.2
A19G U55A C85A | -2.52
A19G G50C C75G C85G C103A U135C | ≤ -4.2

Variant | polymerase ribozyme fitness (log ratio)
A17U C51U G83C A91U U139A G140A G141A U148C | ≤ -4.2
A19U G25A U61A | ≤ -4.2
A17U C54A A89C C99A G136A | -4.03
C18U A28U C38A A47C C85A U145C | ≤ -4.2
C18U A30C C32U A39U A49C U53G C93G C96U U127G U139G G140U A147C U151A | ≤ -4.2
A17U A24G A26G A47G G50A G65C U111C A142U | ≤ -4.2
A19G G94U C96U C116A C125U G133U | ≤ -4.2
A17U | -0.256
A19U C54G C79A U82C G84A A89C G92C U144C | ≤ -4.2
A19C G88C | -3.96
A19G A89C U134G | -3.68
A19G C87A C116A G143C U145G G152U | ≤ -4.2
A17G U31C C35G G86A A121U | -4.19
A17U U53G C57U G59C G117U | -0.451
C18G C63G G68U G71A U78G C85G G100A G141U | ≤ -4.2
C18G A21C A52G G84U G133C U134C | -4.07
A17G U45A G50A G62U C79G G86U C103A | ≤ -4.2
A17U A21C U44A A49C C72A U82A U134A | ≤ -4.2
C18U G34A G48U C75U G94C G141U | ≤ -4.2
A19G C69G C76U U82G G88A G141U A150C | ≤ -4.2
A19U C57G C96G C116G | -0.687
A17U A40G C54U G83A A91C G126C | ≤ -4.2
C18U A20G C87G U102G | ≤ -4.2
